According to the Human Domainome abundance scans (Beltran et al. 2025):
± gives the uncertainty stated by the source.

B1: WW domain-containing transcription regulator protein 1, residues 116 to 162; numbered along this chain, Q9GZV5 (parent)
chain: QSYDVTDELPLPPGWEMTFTATGQRYFLNHIEKITTWQDPRKAMNQP

Variants of: B1
Assay: abundance fitness (aPCA) (normalised: wild type 0, dead -1); higher = more abundant; growth selection in yeast, the domain comes from the species named
Settings: Homo sapiens

Row | Variant | abundance fitness
1 | Y26K | -0.506 ± 0.051
2 | Y26T | -0.409 ± 0.05
3 | Y26H | -0.387 ± 0.071
4 | Y26F | -0.265 ± 0.06
5 | Y26V | -0.322 ± 0.039
6 | Y26S | -0.54 ± 0.042
7 | Y26E | -0.586 ± 0.065
8 | Y26D | -0.739 ± 0.085
9 | Y26P | -0.814 ± 0.15
10 | Y26C | -0.566 ± 0.065
11 | Y26I | -0.409 ± 0.074
12 | Y26G | -0.661 ± 0.047
13 | Y26A | -0.397 ± 0.034
14 | Y26W | -0.587 ± 0.054
15 | Y26N | -0.412 ± 0.067
16 | Y26R | -0.487 ± 0.044
17 | D39C | -0.572 ± 0.066
18 | D39P | -0.588 ± 0.065
19 | D39H | -0.202 ± 0.055
20 | D39F | -0.618 ± 0.059
21 | D39K | -0.736 ± 0.077
22 | D39L | -0.599 ± 0.042
23 | D39I | -0.469 ± 0.051
24 | D39M | -0.789 ± 0.072

Row | Variant | abundance fitness
25 | D39G | -0.747 ± 0.055
26 | D39E | -0.536 ± 0.077
27 | G23P | -0.827 ± 0.047
28 | G23K | -0.412 ± 0.061
29 | G23I | -0.917 ± 0.12
30 | G23M | -0.875 ± 0.079
31 | G23W | -0.964 ± 0.054
32 | G23C | -0.79 ± 0.031
33 | G23V | -0.925 ± 0.042
34 | G23F | -1.15 ± 0.23
35 | G23T | -0.918 ± 0.073
36 | G23D | -0.361 ± 0.048
37 | G23L | -1.07 ± 0.098
38 | G23Q | -0.469 ± 0.059
39 | G23S | -0.565 ± 0.032
40 | G23H | -0.476 ± 0.064
41 | G23R | -0.369 ± 0.029
42 | Q38A | -0.103 ± 0.032
43 | Q38G | -0.264 ± 0.028
44 | Q38F | -0.086 ± 0.042
45 | Q38N | -0.104 ± 0.032
46 | Q38R | -0.017 ± 0.023
47 | Q38E | -0.117 ± 0.027
48 | Q38K | -0.037 ± 0.035

Row | Variant | abundance fitness
49 | Q38S | -0.109 ± 0.026
50 | Q38I | 0.005 ± 0.045
51 | Q38L | -0.031 ± 0.025
52 | Q38C | -0.085 ± 0.025
53 | Q38V | -0.108 ± 0.036
54 | Q38T | -0.095 ± 0.031
55 | Q38H | -0.096 ± 0.048
56 | Q38W | -0.112 ± 0.033
57 | Q38D | -0.129 ± 0.033
58 | Q38M | -0.044 ± 0.028
59 | Q38P | -0.879 ± 0.073
60 | T20S | -0.115 ± 0.041
61 | T20Q | -0.924 ± 0.15
62 | T20H | -0.451 ± 0.041
63 | T20L | -0.519 ± 0.045
64 | T20E | -0.387 ± 0.054
65 | T20K | -0.873 ± 0.13
66 | T20P | -0.937 ± 0.13
67 | T20Y | -0.796 ± 0.038
68 | T20W | -1 ± 0.052
69 | T20N | -0.081 ± 0.054
70 | T20M | -0.295 ± 0.076
71 | T20R | -0.65 ± 0.041
72 | T20C | -0.356 ± 0.029

Row | Variant | abundance fitness
73 | T20G | -0.381 ± 0.03
74 | T20A | -0.287 ± 0.036
75 | A21R | -0.109 ± 0.036
76 | A21H | -0.108 ± 0.058
77 | A21T | -0.039 ± 0.03
78 | A21M | -0.079 ± 0.051
79 | A21S | -0.014 ± 0.028
80 | A21W | -0.448 ± 0.048
81 | A21Q | -0.272 ± 0.06
82 | A21P | -0.088 ± 0.05
83 | A21I | -0.1 ± 0.052
84 | A21G | -0.072 ± 0.025
85 | A21K | -0.019 ± 0.033
86 | A21N | 0.019 ± 0.048
87 | A21C | -0.167 ± 0.05
88 | A21Y | -0.299 ± 0.031
89 | A21E | -0.002 ± 0.036
90 | A21D | -0.029 ± 0.042
91 | N29R | -0.763 ± 0.048
92 | N29D | -0.42 ± 0.066
93 | N29K | -0.826 ± 0.052
94 | N29M | -1.02 ± 0.046
95 | N29W | -0.965 ± 0.093
96 | N29Q | -0.779 ± 0.061

Row | Variant | abundance fitness
97 | N29S | -0.357 ± 0.035
98 | N29F | -1.01 ± 0.082
99 | N29I | -0.949 ± 0.031
100 | N29E | -0.931 ± 0.063
101 | N29V | -1.09 ± 0.036
102 | N29C | -1.04 ± 0.13
103 | N29H | -0.278 ± 0.071
104 | N29L | -1.01 ± 0.035
105 | N29P | -1.11 ± 0.13
106 | N29T | -0.847 ± 0.051
107 | N29A | -0.919 ± 0.041
108 | T22Q | -0.141 ± 0.045
109 | T22G | -0.052 ± 0.024
110 | T22D | 0.104 ± 0.032
111 | T22P | -0.557 ± 0.043
112 | T22W | -0.357 ± 0.034
113 | T22V | -0.37 ± 0.029
114 | T22N | -0.086 ± 0.041
115 | T22A | -0.092 ± 0.031
116 | T22Y | -0.422 ± 0.061
117 | T22C | -0.033 ± 0.034
118 | T22F | -0.35 ± 0.045
119 | T22H | -0.184 ± 0.035
120 | T22L | -0.192 ± 0.034

Row | Variant | abundance fitness
121 | T22K | -0.087 ± 0.034
122 | T22S | -0.058 ± 0.033
123 | T22E | -0.028 ± 0.031
124 | T22M | -0.277 ± 0.05
125 | I31R | -0.06 ± 0.06
126 | I31S | -0.182 ± 0.099
127 | I31G | -0.273 ± 0.063
128 | I31F | -0.14 ± 0.16
129 | I31T | -0.011 ± 0.083
130 | I31L | -0.375 ± 0.16
131 | I31N | -0.162 ± 0.23
132 | I31A | -0.174 ± 0.068
133 | I31W | -0.08 ± 0.067
134 | I31Y | -0.166 ± 0.1
135 | I31P | -0.331 ± 0.23
136 | I31V | -0.094 ± 0.074
137 | Q24I | -0.226 ± 0.11
138 | Q24M | -0.489 ± 0.06
139 | Q24H | -0.552 ± 0.1
140 | Q24N | -0.164 ± 0.026
141 | Q24Y | -0.424 ± 0.065
142 | Q24L | -0.364 ± 0.041
143 | Q24P | -0.846 ± 0.075
144 | Q24S | -0.174 ± 0.025

Row | Variant | abundance fitness
145 | Q24K | -0.14 ± 0.052
146 | Q24T | -0.178 ± 0.04
147 | Q24G | -0.286 ± 0.041
148 | Q24W | -0.82 ± 0.045
149 | Q24C | -0.305 ± 0.056
150 | Q24F | -0.623 ± 0.037
151 | Q24A | -0.124 ± 0.045
152 | Q24E | 0.185 ± 0.052
153 | Q24V | -0.12 ± 0.036
154 | Q24R | -0.222 ± 0.04
155 | Q24D | 0.017 ± 0.055
156 | K33M | -0.284 ± 0.038
157 | K33N | -0.041 ± 0.027
158 | K33P | -0.942 ± 0.066
159 | K33F | -0.683 ± 0.074
160 | K33Q | -0.139 ± 0.038
161 | K33S | -0.177 ± 0.029
162 | K33L | -0.558 ± 0.028
163 | K33Y | -0.733 ± 0.084
164 | K33D | -0.517 ± 0.03
165 | K33R | -0.063 ± 0.025
166 | K33V | -0.905 ± 0.03
167 | K33I | -1.01 ± 0.083
